{"source": "IntAct's records for PubMed 17350572", "parents": {"B1": {"name": "Programmed cell death 6-interacting protein (Homo sapiens), Q8WUM4 (parent)", "chain": "MATFISVQLKKTSEVDLAKPLVKFIQQTYPSGGEEQAQYCRAAEELSKLRRAAVGRPLDKHEGALETLLRYYDQICSIEPKFPFSENQICLTFTWKDAFDKGSLFGGSVKLALASLGYEKSCVLFNCAALASQIAAEQNLDNDEGLKIAAKHYQFASGAFLHIKETVLSALSREPTVDISPDTVGTLSLIMLAQAQEVFFLKATRDKMKDAIIAKLANQAADYFGDAFKQCQYKDTLPKEVFPVLAAKHCIMQANAEYHQSILAKQQKKFGEEIARLQHAAELIKTVASRYDEYVNVKDFSDKINRALAAAKKDNDFIYHDRVPDLKDLDPIGKATLVKSTPVNVPISQKFTDLFEKMVPVSVQQSLAAYNQRKADLVNRSIAQMREATTLANGVLASLNLPAAIEDVSGDTVPQSILTKSRSVIEQGGIQTVDQLIKELPELLQRNREILDESLRLLDEEEATDNDLRAKFKERWQRTPSNELYKPLRAEGTNFRTVLDKAVQADGQVKECYQSHRDTIVLLCKPEPELNAAIPSANPAKTMQGSEVVNVLKSLLSNLDEVKKEREGLENDLKSVNFDMTSKFLTALAQDGVINEEALSVTELDRVYGGLTTKVQESLKKQEGLLKNIQVSHQEFSKMKQSNNEANLREEVLKNLATAYDNFVELVANLKEGTKFYNELTEILVRFQNKCSDIVFARKTERDELLKDLQQSIAREPSAPSIPTPAYQSSPAGGHAPTPPTPAPRTMPPTKPQPPARPPPPVLPANRAPSATAPSPVGAGTAAPAPSQTPGSAPPPQAQGPPYPTYPGYPGYCQMPMPMGYNPYAYGQYNMPYPPVYHQSPGQAPYPGPQQPSYPFPQPPQQSYYPQQ", "partner": "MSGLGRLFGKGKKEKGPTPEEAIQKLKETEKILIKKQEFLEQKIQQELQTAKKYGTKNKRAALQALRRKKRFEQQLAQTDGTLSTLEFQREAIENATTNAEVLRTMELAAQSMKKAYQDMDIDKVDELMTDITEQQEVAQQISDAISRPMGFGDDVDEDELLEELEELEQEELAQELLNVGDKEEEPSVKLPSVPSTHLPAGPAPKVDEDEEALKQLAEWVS"}, "B2": {"name": "Programmed cell death 6-interacting protein (Homo sapiens), Q8WUM4 (parent)", "chain": "B1 chain"}, "B3": {"name": "Programmed cell death 6-interacting protein (Homo sapiens), Q8WUM4 (parent)", "chain": "B1 chain", "partner": "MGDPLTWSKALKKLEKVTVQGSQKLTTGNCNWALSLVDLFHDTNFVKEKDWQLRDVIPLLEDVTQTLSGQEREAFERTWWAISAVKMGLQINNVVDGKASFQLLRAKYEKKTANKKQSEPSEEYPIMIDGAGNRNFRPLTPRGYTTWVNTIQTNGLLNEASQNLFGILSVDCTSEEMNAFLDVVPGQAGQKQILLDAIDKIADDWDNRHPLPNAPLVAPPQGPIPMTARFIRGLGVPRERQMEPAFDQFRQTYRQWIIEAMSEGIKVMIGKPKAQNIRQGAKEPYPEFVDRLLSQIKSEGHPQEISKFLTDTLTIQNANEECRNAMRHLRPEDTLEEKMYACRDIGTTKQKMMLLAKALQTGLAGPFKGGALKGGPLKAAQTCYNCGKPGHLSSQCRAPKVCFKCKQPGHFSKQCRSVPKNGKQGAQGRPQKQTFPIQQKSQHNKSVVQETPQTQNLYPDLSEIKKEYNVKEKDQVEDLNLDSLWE"}, "B4": {"name": "Gag polyprotein (Equine infectious anemia virus (isolate 1369) (EIAV)), P69730 (parent)", "chain": "B3 partner"}}}
{"variants_of": "B1", "details": "with chm4a_human CHMP4A"}
{"variant": "I212D", "effect of a mutation on the interaction": "disrupting interaction"}
{"variants_of": "B2", "details": "with gag_hv1b1 gag"}
{"variant": "F676D", "effect of a mutation on the interaction": "disrupting interaction"}
{"variant": "V498D", "effect of a mutation on the interaction": "disrupting interaction"}
{"variant": "I683D", "effect of a mutation on the interaction": "decreasing interaction"}
{"variants_of": "B2", "details": "with ts101_human TSG101, Q99816"}
{"variant": "P720L", "effect of a mutation on the interaction": "disrupting interaction"}
{"variants_of": "B2", "details": "with sh3g2_human SH3GL2, Q99962"}
{"variant": "R757A;P758A", "effect of a mutation on the interaction": "decreasing interaction"}
{"variants_of": "B3", "details": "with gag_eiav9 gag"}
{"variant": "I683D", "effect of a mutation on the interaction": "decreasing interaction"}
{"variant": "V498D", "effect of a mutation on the interaction": "decreasing interaction"}
{"variant": "F676D", "effect of a mutation on the interaction": "disrupting interaction"}
{"variants_of": "B4", "details": "with pdc6i_human PDCD6IP"}
{"variant": "Y458S;P459R", "effect of a mutation on the interaction": "decreasing interaction"}
